From the RNAGym collection of RNA variant scans (doi:10.1073/pnas.2313332121)
Variants at the floor of the assay were thinned out.

B1: TPR 5TU (parent)
chain: GGAUCUUCUCGAUCUAACAAAAAAGACAAAUCUGCCACAAAGCUUGAGAGCAUCUUCGGAUGCAGAGGCGGCAGCCUUCGGUGGCGCGAUAGCGCCAACGUUCUCAACUAUGACACGCAAAACGCGUGCUCCGUUGAAUGGAGUUUAUCAUG

Variants of: B1
Assay: polymerase ribozyme fitness, log enrichment relative to wild type (log ratio); higher = more active; in vitro selection for triplet polymerase activity
Method in brief: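 Genotype fitness is the logarithm of its enrichment divided by wild-type enrichment, using inverse-variance-weighted averages of replicates. That logarithm is base 2. Enrichment was measured by Illumina sequencing of input and output libraries from one triplicate in vitro selection round, with frozen incubation at −7 °C, on PCR-built, transcribed mutant libraries of each subunit of a heterodimeric triplet polymerase ribozyme, retaining genotypes with ≥10 input reads and ≥1 read per output.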

| Variant | polymerase ribozyme fitness (log ratio) |
| --- | --- |
| GGAUCUUCUCGAUCUAACAAAAAAGACAAAUCUGCCACAAAGCUUGAGUGCAUCUUCGGAUGCAGAGGCGGCAGCCUUCGGUGGCGCGUUAGCGCCAACGUUCUCAACUAUGACACGCAAAACGCGUGCUCUGUUGAAUGGAGUUUAUCAUG [A49U A89U C132U] | -2.65 |
| GGAUCUUCUCGAUCUAACAAAAAAGACAAAUCUGCCACAAAGCUUGAGUGCAUCUUCGGAUGCAGAGGCGGCAGCCUUCGGUGGGGCGAUAGCGCCAACGUUCUCAACUAUGACCCGCAAAACGCGUGCUCCGUUGAAUGGAGUUUAUCAUG [A49U C85G A115C] | -3.64 |
| GGAUCUUCUCGAUCUAACAAAAAAGACAAAUCUGCCACAAAGCUUGAGGGCAUCAUCGGAUGCAGAGGCGGCAGCCUUUGGUGGCGCGAUAUCGACAACGUUCUCAACUAUGACACGCAAAACGCGUGCUCCGUUGAAUAGAGUUUAUCAUG [A49G U55A C79U G92U C95A G140A] | ≤ -4.2 |
| GGAUCUUCUCGAUCUAACAAAAAAGACAAAUCUGCCACAAAGCUUGAGGGCAUCAUCGGAUGCAGAGGCGGCAGCCUUCGGUGGCGCGAUAGCGCCAACGUUCUCAACUAUGACACGCAAAACGCGUGCUCCGUUGAAUGGAGUUUAUCAUG [A49G U55A] | -0.644 |
| GGAUCUUCUCGAUCUAACAAAAAAGACAAAUCUGCCACAAAGCUUGAGGGCAUCUUCGGAUGCAGAGGCGGCAGCCUUCGGUGGCGCGAUAGCGCCAACGUUCUCAACUAUGACACGCAAAACGCGUGCUCCGUUGAAAGGAGUUUAUCAUG [A49G U139A] | -4.08 |
| GGAUCUUCUCGAUCUAACAAAAAAGACAAAUCUGCCACAAAGCUUGAGUGCAUCUUCGGAUGCAGAGGCGGCAGCCUUCGGUGGCGCGAUAGCGCCUACGUUCUCGACUAUGACAUGCAAAACGCGUGCUCCGUUGAAUGGAGUUUAUCAUG [A49U A97U A106G C116U] | -2.93 |
| GGAUCUUCUCGAUCUAACAAAAAAGACAAAUCUGCCACAAAGCUUGAGUGCAUCUUCGGAUGCAGAGGGGGCAGACUUCGGUGGCGCGAGAGCGCCAACGUUCUCAACUAUGACACGCAAAACGCGUGCUCCGUUGAAUGGAGUUUAUCAUG [A49U C69G C75A U90G] | ≤ -4.2 |
| GGAUCUUCUCGAUCUAACAAAAAAGACAAAUCUGCCACAAAGCUUGAGGGCAUCUUCGGAUGCAGAGGCGGCAGCCUUCGGUGUCGCGAUAGCGCCAACGUUCUCAACUAUGACACGCAAAACGCGUGCUCCGUUGAAUGGAGUGUAUCAUG [A49G G84U U145G] | -3.09 |
| GGAUCUUCUCGAUCUAACAAAAAAGACAAAUCUGCCACAAAGCUUGAGGGCAUCUUCGGAUGCAGAGGCGGCAGCCUUCGGUGACGCGAUAGCGCCAACGUUCUCAACUAUGACACGCAAAACGCGUGCUCCGUUGAAUGGAGUUUAUCAUA [A49G G84A G152A] | -2.8 |
| GGAUCUUCUCGAUCUAACAAAAAAGACAAAUCUGCCACAAAGCUUGAGGGCAUCGUUGGGUGCAGAGGCGGCAGGUUUCGGUGGCGCGAAAGCGCCAACGUCCUCAACUAUGACACGCAAAACGCGUGCUCCGGUGAAUCGAGUUUAUCAUG [A49G U55G C57U A60G C75G C76U U90A U102C U134G G140C] | ≤ -4.2 |
| GGAUCUUCUCGAUCUAACAAAAAAGACAAAUCUGCCACAAAGCUUGAGUGCAUUUUCGGAUGCAGAGGCGGCAGCCUUCGGUGGCGCGAUAGCGCCAACGUUCUCAACUAUGACACGCAAAACGCGUGCUCCGUUGAAUGGAGUUUAUCAUG [A49U C54U] | -1.34 |
| GGAUCUUCUCGAUCUAACAAAAAAGACAAAUCUGCCACAAAGCUUGAGGGCAUCUUCGGAUGCAGAGGCGGCAGCCUUCGGUGGCGCGAUAGCGCCAACGUUCUCAACUAUGACACGCAAAACGCUUGCUCCGUUGAAUGGAGUUUAUCAUG [A49G G126U] | -0.157 |
| GGAUCUUCUCGAUCUAACAAAAAAGACAAAUCUGCCACAAAGCUUGAGUGCAUCUUCGGAUGCAGAGGCGGCUGACUUCGGUGGCGCGAUAGCGCCAACGUUCUCAACUAUGACACGCAAAACGCGUGCUCCGUUGAAUGGAGUUUAUCAUG [A49U A73U C75A] | ≤ -4.2 |
| GGAUCUUCUCGAUCUAACAAAAAAGACAAAUCUGCCACAAAGCUUGAGUGCAUCUUCGGAUGCAGAGGCGGCAGCCUUCGGUGGCGCGAUAGCGCCAACGUUCUCAACUAUGACACGCAAAACGCGUGCUCCGUUGAAUGGAGUUUAUCAUG [A49U] | -0.673 |
| GGAUCUUCUCGAUCUAACAAAAAAGACAAAUCUGCCACAAAGCUUGAGUGCAUCUUCGGAUGCAGAGGCGGCGGCCUUCGCUGGUGCGAUAGCGCCAACGUUCUCAACUAUGACACGCAAAACGCGUGCUCCGUUGAAUGGAGUUUAUCAUG [A49U A73G G81C C85U] | -2.64 |
| GGAUCUUCUCGAUCUAACAAAAAAGACAAAUCUGCCACAAAGCUUGAGGGCAUCUUCGGAUGCAGAGGCGGCAGCCUUCGGUGGCGCGAUAUCGCCAACGUUCUCAACUAUGACACGCAAAACGCGUGCUCCGUUGAAUGGAGUUUAUCAUG [A49G G92U] | 0.21 |
| GGAUCUUCUCGAUCUAACAAAAAAGACAAAUCUGCCACAAAGCUUGAGUGCAUCUUGGGAAGCAGAGGCGGCGGCCUUCGGUGGCGCCAUAGCGCCCACGUUCUCAACUAUGACACGCAAAACGCGUGCUCCGUAGAAUGGAGUUUAUCAUA [A49U C57G U61A A73G G88C A97C U135A G152A] | ≤ -4.2 |
| GGAUCUUCUCGAUCUAACAAAAAAGACAAAUCUGCCACAAAGCUUGAGGGCAUCUUCGGAUGCAGAGGCGGCAGCCUUCGGUGGCGCGAUAGCACCAACGUUCUCAACUAUGACACGCAAAACGCGCGCUCCGUUGAAUGGAGUUUAUCAUG [A49G G94A U127C] | -3.23 |
| GGAUCUUCUCGAUCUAACAAAAAAGACAAAUCUGCCACAAAGCUUGAGUGCAUCUUCGGAUGCAGAGGCGGCAGCCUUCGGUGGCGCGAUGGCGCCAACGUUCUCAACUAUGACACGCAAAACGCGUGCUCCGUUGAAUGGAGUUUAUCAUG [A49U A91G] | ≤ -4.2 |

| Variant | polymerase ribozyme fitness (log ratio) |
| --- | --- |
| GGAUCUUCUCGAUCUAACAAAAAAGACAAAUCUGCCACAAAGCUUGAGUGCAUCUUCGGAUGCAGAGGCGGCAGCCUUCGGUGGCGCGAUAGCGCCAACGUUCUCAACUUUGACACUCAAAACGCGUGCUCCGUUGAAUGGAGUUUAUCAUG [A49U A110U G117U] | ≤ -4.2 |
| GGAUCUUCUCGAUCUAACAAAAAAGACAAAUCUGCCACAAAGCUUGAGUGCAUCUUCGGAUGCAGAGGCGGCAGCCUUCGGUGGCGCGAUAGCGCCAACGUUCUCAACUAUGACACGCCAAACGCGAGCUCCGAUGAAUGGAGUUUAUCAUG [A49U A119C U127A U134A] | ≤ -4.2 |
| GGAUCUUCUCGAUCUAACAAAAAAGACAAAUCUGCCACAAAGCUUGAGGGCAUCUUCGGAUGCAGAGGCGGCAGCCUUCGGUGACGCGAUAGCGCCAACGUUCUCAACUAUGACACGCAAAACGCGUGCUCCGUUGAAUGGAGUUUAUCAUG [A49G G84A] | -0.52 |
| GGAUCUUCUCGAUCUAACAAAAAAGACAAAUCUGCCACAAAGCUUGAGUGCAUCUUCGGAUGCAGAGGCGGCAGCCUUCGGUGGCGCGAUAGCGCCAACGUUCUCAACUAUGACACGCAAAACGCGUGCUCCGUUGAAUGGCGUUUAUCAUG [A49U A142C] | -1.43 |
| GGAUCUUCUCGAUCUAACAAAAAAGACAAAUCUGCCACAAAGCUUGAGGGCAUCAUCGGAUGCAGAGGCGGCGGCCUUCGGUGGCGCGAUAGCGCCAACGUUCUCAACUAUGACACGCAAAACGCGUGCUCCGUUGAAUGGAGUUUAUCAUG [A49G U55A A73G] | -3.1 |
| GGAUCUUCUCGAUCUAACAAAAAAGACAAAUCUGCCACAAAGCUUGAGUGCAUGUUCGGAUGCAGAGGCGGAAGCCUUCGGGGGCGCGAUAGCGCCAACGUUCUCAACUUUGACACGCAAAACGCGUGCUCCGUUGAAUGGAGUUUAUCAUG [A49U C54G C72A U82G A110U] | ≤ -4.2 |
| GGAUCUUCUCGAUCUAACAAAAAAGACAAAUCUGCCACAAAGCUUGAGUGCAUCUUCGGAUGCAGGGGCGGCAGCCUUCCGUGUCGCGAUAGCGCCAACGUGCUCAACUAUGACACGCAAAACGCGUGCUCCGUUGAAUGGAGUUUAUCAUG [A49U A66G G80C G84U U102G] | ≤ -4.2 |
| GGAUCUUCUCGAUCUAACAAAAAAGACAAAUCUGCCACAAAGCUUGAGGGCAUCUUCGGAUGCAGAGGCGGCAGCCUUCGGUGGCGCGAUAGCGCCAACGUUCUCAACUAUGACACGCAAAACGCGUGCUCCCUUGAAUGGAGUUUAUCAUG [A49G G133C] | -2.21 |
| GGAUCUUCUCGAUCUAACAAAAAAGACAAAUCUGCCACAAAGCUUGAGGGCAUCUUCGGAUGCAGAGGCGGCAGCCUUCGGUGGCGCGAUAGCGCCAACGUUCUCAACUAUGACACGCAAAACGCGUGCUCCGUUGAAUAGAGUUUAUCAUG [A49G G140A] | -3.77 |
| GGAUCUUCUCGAUCUAACAAAAAAGACAAAUCUGCCACAAAGCUUGAGGGCAUCUUCGGAUGCAGAGGCGGCAGCCUUCGGUGGCGCGAUAGCGCCAACGUUCUCAACUAUGACACGCAAAACGCGUGCUCCGUUGAAUCGAGUUUAUCAUG [A49G G140C] | -3.88 |
| GGAUCUUCUCGAUCUAACAAAAAAGACAAAUCUGCCACAAAGCUUGAGUGCAUCUUCGGCUGCAGAGGCGGCAGCCUUCGGUGGCGCGAUAGCGCCAACGUUCUCAACUAUGACACGCAAAACGCGUGCUCCGUUGAAUGGAGUUUAUCAUG [A49U A60C] | -3.47 |
| GGAUCUUCUCGAUCUAACAAAAAAGACAAAUCUGCCACAAAGCUUGAGUGCCUCUUCGGAUGCAGAGGCGGCAGCCUUCGGUGGCGCGAUAGCGCCAACGUUCUCAACUAUGACACGCAAAACGCGUGCUCCGUUGAAUGGAGUUUAUCAUG [A49U A52C] | -0.692 |
| GGAUCUUCUCGAUCUAACAAAAAAGACAAAUCUGCCACAAAGCUUGAGUGCAUCUUCGGAUGCAGAGGCGGCAGCCUUCGGUGGCGCGAUAGCGCCAACGUUCUCACCUAUGACACGCAAAACGCGUGCUCCGUUGAAUGGAGUUUAUCAUG [A49U A107C] | ≤ -4.2 |
| GGAUCUUCUCGAUCUAACAAAAAAGACAAAUCUGCCACAAAGCUUGAGGGCAUCUUCGGAUGCAGAGGCGGCAGCCUUCGGUGGCGCGAUACCGCCAACGUUCUCAACUAUGACUCGCAAAACGCGUGCUCCGUUGAAUGGAGUUUAUCAUG [A49G G92C A115U] | -3.24 |
| GGAUCUUCUCGAUCUAACAAAAAAGACAAAUCUGCCACAAAGCUUGAGGGCAUCUUCGGAUGCAGAGGCGGCAGCCUUCGGUGGCGCGAUAGCGCCAACGCUCUCAACUAUGAGACGCAAAACGCGUGCUCCGCUGAAUGGAGUUUAUCAUG [A49G U101C C114G U134C] | -3.89 |
| GGAUCUUCUCGAUCUAACAAAAAAGACAAAUCUGCCACAAAGCUUGAGUGCAUGAUCGAGUGCAGAGGCGGCAGCCUUCGGUGGCGCGAGAGCGCCAACGUUCUCUACUAUGACACGCAAAACCCGUGCUCCGUUGAAUGGAGUUUAUCAUG [A49U C54G U55A G59A A60G U90G A106U G124C] | ≤ -4.2 |
| GGAUCUUCUCGAUCUAACAAAAAAGACAAAUCUGCCACAAAGCUUGAGGGCAUCUGCGGAUGCAGAGGCGGCAGCCUUCGGUCGCGCGAUAGCGCCAACGUUCUCAACUAUGACACGCAAAACGCGUGCUCCGUUGAAUGGAGUUUAUCAUG [A49G U56G G83C] | -2.85 |
| GGAUCUUCUCGAUCUAACAAAAAAGACAAAUCUGCCACAAAGCUUGAGUGCAUCUUCGGAUGCAGAGGCGGCAGCCUUCGGUGGGGCGAUAGCGCCAACGUUCUCAACUAUGACACGCAAAACGCGUGCUCCGUUGAAUGGAGUUUAUCAUG [A49U C85G] | -2.96 |
| GGAUCUUCUCGAUCUAACAAAAAAGACAAAUCUGCCACAAAGCUUGAGUGCAUCUUAGGAUGCAGAGGCGGCAGCCUUCGAUGGCGCGAUAGCGCCACCGUUCUCAACUAUGACACGCAAAACGCGUGCUCCGUUGAAUGGAGUUUAGCAUG [A49U C57A G81A A98C U148G] | ≤ -4.2 |
